Literature values, collected in article PMC2033707.

Molecular target: EGF (UniProt P01133)
UniProt P01133, sequence (P01133 971-1023): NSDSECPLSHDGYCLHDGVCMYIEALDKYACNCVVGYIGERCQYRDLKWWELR

- Kd: 1 nM
Substance: EGFR (from UniProt P00533)
